Test results as given in paper PMC8539640.
Values belong to the substance of their own block, whether it stands above or below them.

Experiments:
[1] = target: Bam35 P26 (transglycosylase and integral membrane scaffolding, suggested), bait pBN_26 (Bacillus virus Bam35); assay: two-hybrid
[2] = target: Bam35 P22 (special vertex, suggested), bait pBN_22 (Bacillus virus Bam35); assay: two-hybrid; pairwise Y2H: Bam35 ORF baits (pBC or pBN) against full-length HER1410 ORF preys (pPC or pPN); HIS3 reporter, -LWH with 0, 0.025, 0.1, 3, 10, 25, 50 and 100 mM 3AT; positive when growth was higher than in the self-activation controls with the empty vectors
[3] = target: Bam35 P19t (P19 without its predicted transmembrane domain), bait pBN_19t (Bacillus virus Bam35); assay: two-hybrid

Substance: B. thuringiensis HER1410 protein of locus 16200, full length, prey pPC_(16200) (natural protein)
Max. 3AT (mM) (B35ORF BtORF) [1]: 3 mM

Max. 3AT (mM) (B35ORF BtORF) [2]: 50 mM
Substance: B. thuringiensis HER1410 YadS, full length, prey pPC_yadS(28175) (natural protein)

other [3]: 100 mM
Substance: B. thuringiensis HER1410 OmpR, full length, prey pPC_ompR(22050) (natural protein)
